Laboratory results taken from paper PMC3474971.

Target: thrombin (UniProt P00734;P00734 328-363;364-622)
Experiment: dye-displacement fluorescence; YOYO-1 25 nM, aptamer 10 nM; 20 mM Tris-Cl pH 7.5, 300 mM NaCl, 5 mM MgCl2, 10 mM KCl; 25 C; 30 min incubation with target before dye

ATAGCGGAGGAAGGATACCTGGGGGAGTATAT (structured_DNA) [ATP aptamer]
binding result: no binding
